# “And” between values parts separate entries of the source, which are not always exact repeats. Identical values can stand only once.
# B1: 抗H7N9全人源单克隆抗体2G3 (antibody, V domains shown)
# VH: QVQLVESGAEVKKPGASVKVSCKASGYIFTSYEINWVRQATGQGLEWMGWMNPESGETGFAQKFQGRVTMTRNTSITTAYMELSSLTSEDTAVYYCATGNAECSGGSCYNWFEPWGQGTLVTVSS
# VL: SSELTQDPAVSVALGQTVRITCQGDKLKSYYASWYQQKPGQAPVLVIYGRNNRPSGIPDRFSGSSSGNTASLTITGAQAEDEADYYCNSKETSGYHLVFGGGTKLTVLV
# Experiments:
# [1] = molecular target: H7N9病毒 A/Anhui/1/2013 的血凝素HA (on live virus) (H7N9 influenza virus A/Anhui/1/2013); assay: cell-based or functional assay
# [2] = molecular target: H7N9病毒的HA蛋白(购自ACROBiosystems) (H7N9 influenza virus)
# [3] = molecular target: H7N9病毒的HA蛋白(购自ACROBiosystems) (H7N9 influenza virus); remark: listed apart in the source
binder,measurement,setting,value
B1,"微量中和-ELISA (MDCK细胞, 100TCID50 病毒) IC50",[1],0.0711 µg/mL
same,Kd,[2],2.3 nM
same,450nm (OD),[3],1.6 OD 450nm and 2 OD 450nm and 1.78 OD 450nm

# — patent CN111320686A
